Reference: paper PMC3187746

How the values were obtained:
[1] = molecular target: pUL77 (Human cytomegalovirus (cosmid pCM1075; strain not stated)) (UniProt P16726); assay: pull-down; conditions: scale: binding efficiency
[2] = molecular target: in vitro translated, radiolabeled pUL77 (wild type, from pcDNA-UL77) (human cytomegalovirus (HCMV)) (UniProt P16726); assay: cross-linking; in vitro translated, radiolabeled protein in PBS, 0.01% glutaraldehyde, 8% SDS-PAGE, autoradiography
[3] = molecular target: purified recombinant pUL77 (rpUL77) (human cytomegalovirus (HCMV)) (UniProt P16726); assay: cross-linking

Substance | binding signal [1] | also measured
bio-250 bp | 0.5 | 
bio-500 bp | 2.2 | 
bio-1000 bp | 4.9 | 
in vitro translated, radiolabeled pUL77 (wild type, from pcDNA-UL77) (from UniProt P16726 1-642) (natural protein) |  | stoichiometry N [2]: 2
purified recombinant pUL77 (rpUL77) (from UniProt P16726 1-642) (natural protein) |  | stoichiometry N [3]: 2
